The numbers were not newly measured in PMC5473928, which cites them from elsewhere.

In the data set the target is SOS allosteric site (Homo sapiens) (UniProt Q07889).

“And” between values parts separate entries of the source, which are not always exact repeats. Equal entries are not always repeated.

Usually Kd stands for the constant that tells how readily two partners part at equilibrium. For the substance KRas (from UniProt P01116), the Kd is 3.6 µM and 10 µM.
